Test results published in patent US20240116997A1.

Key:
[1] = target: C151 (V11I, D35A, C38A, K53A, C76A, C127A) (human) (UniProt Q14116); experiment: cell-based or functional assay
[2] = target: C152 (V11I, S36A, C38A, K53A, C76A, C127A) (human) (UniProt Q14116); experiment: cell-based or functional assay
[3] = target: C158 (V11I, C38A, K53A, C76A, G108A, C127A) (human) (UniProt Q14116); experiment: cell-based or functional assay
[4] = target: C154 (V11I, E31A, D37A, C38A, K53A, C76A, C127A) (human) (UniProt Q14116); experiment: cell-based or functional assay
[5] = target: C166 (V11I, C38A, S55T, C76A, C127A) (human) (UniProt Q14116); experiment: cell-based or functional assay
[6] = target: C155 (V11I, C38A, D40A, K53A, C76A, C127A) (human) (UniProt Q14116); experiment: cell-based or functional assay
[7] = target: C149 (V11I, E31A, C38A, K53A, C76A, C127A) (human) (UniProt Q14116); experiment: cell-based or functional assay
[8] = target: IL-18 polypeptide SEQ ID NO: 38 (E06K) (human) (UniProt Q14116); experiment: cell-based or functional assay
[9] = target: C086 (SEQ ID NO: 30; E6K, V11I, C38A, K53A, T63A, C76A, C127A) (human) (UniProt Q14116); experiment: cell-based or functional assay
[10] = target: IL-18 polypeptide SEQ ID NO: 46 (E06K, K53A, S55A, M51G) (human) (UniProt Q14116); experiment: cell-based or functional assay
[11] = target: IL-18 polypeptide SEQ ID NO: 43 (E06K, K53A, S55A, Y01G) (human) (UniProt Q14116); experiment: cell-based or functional assay
[12] = target: IL-18 polypeptide SEQ ID NO: 35 (Y01G, F02A, E06K, M51G, K53A, D54A, S55A, T63A) (human) (UniProt Q14116); experiment: cell-based or functional assay
[13] = target: IL-18 polypeptide SEQ ID NO: 59 (E6K, C38A, K53A) (human) (UniProt Q14116); experiment: cell-based or functional assay
[14] = target: IL-18 polypeptide SEQ ID NO: 62 (E6K, C38A, K53A, C127A) (human) (UniProt Q14116); experiment: cell-based or functional assay
[15] = target: IL-18 polypeptide SEQ ID NO: 37 (S55A) (human) (UniProt Q14116); experiment: cell-based or functional assay
[16] = target: C150 (V11I, T34A, C38A, K53A, C76A, C127A) (human) (UniProt Q14116); experiment: cell-based or functional assay
[17] = target: C162 (K8E, V11I, C38A, C76A, Q103R, C127A) (human) (UniProt Q14116); experiment: cell-based or functional assay
[18] = target: IL-18 polypeptide SEQ ID NO: 52 (E06K, T63A) (human) (UniProt Q14116); experiment: cell-based or functional assay
[19] = target: C167 (V11I, C38A, C76A, S105I, C127A) (human) (UniProt Q14116); experiment: cell-based or functional assay
[20] = target: C164 (V11I, C38A, S55H, C76A, C127A) (human) (UniProt Q14116); experiment: cell-based or functional assay
[21] = target: C153 (V11I, D37A, C38A, K53A, C76A, C127A) (human) (UniProt Q14116); experiment: cell-based or functional assay
[22] = target: C144 (V11I, C38A, K53A, T63A, C76A, C127A) (human) (UniProt Q14116); experiment: cell-based or functional assay
[23] = target: IL-18 polypeptide SEQ ID NO: 36 (K53A) (human) (UniProt Q14116); experiment: cell-based or functional assay
[24] = target: C145 (V11I, C38A, K53A, S55A, C76A, C127A) (human) (UniProt Q14116); experiment: cell-based or functional assay
[25] = target: IL-18 polypeptide SEQ ID NO: 5 (E6K, V11I, C38A, K53A, T63A, C68A, C76A, M86C, C127A) (human) (UniProt Q14116); experiment: cell-based or functional assay
[26] = target: IL-18 polypeptide SEQ ID NO: 50 (E06K, K53A, T63A) (human) (UniProt Q14116); experiment: cell-based or functional assay
[27] = target: IL-18 polypeptide SEQ ID NO: 6 (E6K, V11I, C38A, K53A, T63A, C68A, C76A, D98C, C127A) (human) (UniProt Q14116); experiment: cell-based or functional assay
[28] = target: IL-18 polypeptide SEQ ID NO: 9 (E6K, C38A, K53A, C68A, D98C) (human) (UniProt Q14116); experiment: cell-based or functional assay
[29] = target: C160 (V11I, C38A, K53A, C76A, D110A, C127A) (human) (UniProt Q14116); experiment: cell-based or functional assay
[30] = target: IL-18 polypeptide SEQ ID NO: 47 (C38S, C68S, C76S, C127S) (human) (UniProt Q14116); experiment: cell-based or functional assay
[31] = target: C159 (V11I, C38A, K53A, C76A, H109A, C127A) (human) (UniProt Q14116); experiment: cell-based or functional assay
[32] = target: IL-18 polypeptide SEQ ID NO: 57 (E6K, C38S, K53A) (human) (UniProt Q14116); experiment: cell-based or functional assay
[33] = target: C148 (F2A, V11I, C38A, K53A, C76A, C127A) (human) (UniProt Q14116); experiment: cell-based or functional assay
[34] = target: C165 (V11I, C38A, S55R, C76A, C127A) (human) (UniProt Q14116); experiment: cell-based or functional assay
[35] = target: IL-18 WT (native sequence, SEQ ID NO: 1) (human) (UniProt Q14116)
Sequence of IL-18 WT (native sequence, SEQ ID NO: 1) (human) (Q14116 37-193): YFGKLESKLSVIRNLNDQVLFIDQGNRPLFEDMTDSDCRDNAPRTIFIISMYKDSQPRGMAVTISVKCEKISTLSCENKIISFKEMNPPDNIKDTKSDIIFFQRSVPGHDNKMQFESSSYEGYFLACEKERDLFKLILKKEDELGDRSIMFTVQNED

Sequence of C167 (V11I, C38A, C76A, S105I, C127A) (human) (Q14116 37-193 V47I/C74A/C112A/S141I/C163A): as the sequence (Q14116 37-193) above, with V11I, C38A, C76A, S105I, C127A counted along it
Sequence of IL-18 polypeptide SEQ ID NO: 62 (E6K, C38A, K53A, C127A) (human) (Q14116 other isoform, or with tags, fused parts or gaps C38A K53A C127A C38A K53A C127A): as the sequence (Q14116 37-193) above, with E6K, C38A, K53A, C127A counted along it
Sequence of IL-18 polypeptide SEQ ID NO: 6 (E6K, V11I, C38A, K53A, T63A, C68A, C76A, D98C, C127A) (human) (Q14116 other isoform, or with tags, fused parts or gaps with the stated changes): as the sequence (Q14116 37-193) above, with E6K, V11I, C38A, K53A, T63A, C68A, C76A, D98C, C127A counted along it
Sequence of C164 (V11I, C38A, S55H, C76A, C127A) (human) (Q14116 37-193 V47I/C74A/S91H/C112A/C163A): as the sequence (Q14116 37-193) above, with V11I, C38A, S55H, C76A, C127A counted along it
Sequence of IL-18 polypeptide SEQ ID NO: 47 (C38S, C68S, C76S, C127S) (human) (Q14116 37-193 C74S/C104S/C112S/C163S): as the sequence (Q14116 37-193) above, with C38S, C68S, C76S, C127S counted along it
Sequence of IL-18 polypeptide SEQ ID NO: 52 (E06K, T63A) (human) (Q14116 37-193 E42K/T99A): as the sequence (Q14116 37-193) above, with E6K, T63A counted along it
Sequence of C165 (V11I, C38A, S55R, C76A, C127A) (human) (Q14116 37-193 V47I/C74A/S91R/C112A/C163A): as the sequence (Q14116 37-193) above, with V11I, C38A, S55R, C76A, C127A counted along it
Sequence of C149 (V11I, E31A, C38A, K53A, C76A, C127A) (human) (Q14116 37-193 V47I/E67A/C74A/K89A/C112A/C163A): as the sequence (Q14116 37-193) above, with V11I, E31A, C38A, K53A, C76A, C127A counted along it
Sequence of IL-18 polypeptide SEQ ID NO: 37 (S55A) (human) (Q14116 37-193 S91A): as the sequence (Q14116 37-193) above, with S55A counted along it
Sequence of C153 (V11I, D37A, C38A, K53A, C76A, C127A) (human) (Q14116 37-193 V47I/D73A/C74A/K89A/C112A/C163A): as the sequence (Q14116 37-193) above, with V11I, D37A, C38A, K53A, C76A, C127A counted along it
Sequence of C155 (V11I, C38A, D40A, K53A, C76A, C127A) (human) (Q14116 37-193 V47I/C74A/D76A/K89A/C112A/C163A): as the sequence (Q14116 37-193) above, with V11I, C38A, D40A, K53A, C76A, C127A counted along it
Sequence of C151 (V11I, D35A, C38A, K53A, C76A, C127A) (human) (Q14116 37-193 V47I/D71A/C74A/K89A/C112A/C163A): as the sequence (Q14116 37-193) above, with V11I, D35A, C38A, K53A, C76A, C127A counted along it
Sequence of IL-18 polypeptide SEQ ID NO: 46 (E06K, K53A, S55A, M51G) (human) (Q14116 37-193 E42K/M87G/K89A/S91A): as the sequence (Q14116 37-193) above, with E6K, M51G, K53A, S55A counted along it
Sequence of IL-18 polypeptide SEQ ID NO: 50 (E06K, K53A, T63A) (human) (Q14116 37-193 E42K/K89A/T99A): as the sequence (Q14116 37-193) above, with E6K, K53A, T63A counted along it
Sequence of C166 (V11I, C38A, S55T, C76A, C127A) (human) (Q14116 37-193 V47I/C74A/S91T/C112A/C163A): as the sequence (Q14116 37-193) above, with V11I, C38A, S55T, C76A, C127A counted along it
Sequence of C152 (V11I, S36A, C38A, K53A, C76A, C127A) (human) (Q14116 37-193 V47I/S72A/C74A/K89A/C112A/C163A): as the sequence (Q14116 37-193) above, with V11I, S36A, C38A, K53A, C76A, C127A counted along it
Sequence of C144 (V11I, C38A, K53A, T63A, C76A, C127A) (human) (Q14116 37-193 V47I/C74A/K89A/T99A/C112A/C163A): as the sequence (Q14116 37-193) above, with V11I, C38A, K53A, T63A, C76A, C127A counted along it
Sequence of IL-18 polypeptide SEQ ID NO: 43 (E06K, K53A, S55A, Y01G) (human) (Q14116 37-193 Y37G/E42K/K89A/S91A): as the sequence (Q14116 37-193) above, with Y1G, E6K, K53A, S55A counted along it
Sequence of C160 (V11I, C38A, K53A, C76A, D110A, C127A) (human) (Q14116 37-193 V47I/C74A/K89A/C112A/D146A/C163A): as the sequence (Q14116 37-193) above, with V11I, C38A, K53A, C76A, D110A, C127A counted along it
Sequence of C159 (V11I, C38A, K53A, C76A, H109A, C127A) (human) (Q14116 37-193 V47I/C74A/K89A/C112A/H145A/C163A): as the sequence (Q14116 37-193) above, with V11I, C38A, K53A, C76A, H109A, C127A counted along it
Sequence of C145 (V11I, C38A, K53A, S55A, C76A, C127A) (human) (Q14116 37-193 V47I/C74A/K89A/S91A/C112A/C163A): as the sequence (Q14116 37-193) above, with V11I, C38A, K53A, S55A, C76A, C127A counted along it
Sequence of IL-18 polypeptide SEQ ID NO: 36 (K53A) (human) (Q14116 37-193 K89A): as the sequence (Q14116 37-193) above, with K53A counted along it
Sequence of IL-18 polypeptide SEQ ID NO: 59 (E6K, C38A, K53A) (human) (Q14116 other isoform, or with tags, fused parts or gaps C38A K53A C38A K53A): as the sequence (Q14116 37-193) above, with E6K, C38A, K53A counted along it
Sequence of C154 (V11I, E31A, D37A, C38A, K53A, C76A, C127A) (human) (Q14116 37-193 V47I/E67A/D73A/C74A/K89A/C112A/C163A): as the sequence (Q14116 37-193) above, with V11I, E31A, D37A, C38A, K53A, C76A, C127A counted along it
Sequence of IL-18 polypeptide SEQ ID NO: 57 (E6K, C38S, K53A) (human) (Q14116 other isoform, or with tags, fused parts or gaps C38S K53A C38S K53A): as the sequence (Q14116 37-193) above, with E6K, C38S, K53A counted along it
Sequence of C086 (SEQ ID NO: 30; E6K, V11I, C38A, K53A, T63A, C76A, C127A) (human) (Q14116 other isoform, or with tags, fused parts or gaps with the stated changes): as the sequence (Q14116 37-193) above, with E6K, V11I, C38A, K53A, T63A, C76A, C127A counted along it
Sequence of IL-18 polypeptide SEQ ID NO: 38 (E06K) (human) (Q14116 37-193 E42K): as the sequence (Q14116 37-193) above, with E6K counted along it

Fc-fused human IL-18 binding protein isoform a (IL-18BPa) (from UniProt O95998 31-194) (Fc fusion)
IC50 (nM), IL-18BPa inhibition of IFNγ induction, NK-92 cells [1]: 7.85 nM | IC50 (nM), IL-18BPa inhibition of IFNγ induction, NK-92 cells [2]: 2.22 nM | IC50 (nM), IL-18BPa inhibition of IFNγ induction, NK-92 cells [3]: 1.81 nM | IC50 (nM), IL-18BPa inhibition of IFNγ induction, NK-92 cells [4]: 3.23 nM | IC50 (nM), IL-18BPa inhibition of IFNγ induction, NK-92 cells [5]: 0.809 nM | IC50 (nM), IL-18BPa inhibition of IFNγ induction, NK-92 cells [6]: 0.681 nM | IC50 (nM), IL-18BPa inhibition of IFNγ induction, NK-92 cells [7]: 21.3 nM | IC50 (nM), IL-18BPa inhibition of IFNγ induction, NK-92 cells [8]: 7.79 nM | IC50 (nM), IL-18BPa inhibition of IFNγ induction, NK-92 cells [9]: 284 nM | IC50 (nM), IL-18BPa inhibition of IFNγ induction, NK-92 cells [10]: 0.189 nM | IC50 (nM), IL-18BPa inhibition of IFNγ induction, NK-92 cells [11]: 27.8 nM | IC50 (nM), IL-18BPa inhibition of IFNγ induction, NK-92 cells [12]: > 55 nM | IC50 (nM), IL-18BPa inhibition of IFNγ induction, NK-92 cells [13]: 146 nM | IC50 (nM), IL-18BPa inhibition of IFNγ induction, NK-92 cells [14]: 780 nM | IC50 (nM), IL-18BPa inhibition of IFNγ induction, NK-92 cells [15]: 4.46 nM | IC50 (nM), IL-18BPa inhibition of IFNγ induction, NK-92 cells [16]: 3.62 nM | IC50 (nM), IL-18BPa inhibition of IFNγ induction, NK-92 cells [17]: 0.823 nM | IC50 (nM), IL-18BPa inhibition of IFNγ induction, NK-92 cells [18]: 47.1 nM | IC50 (nM), IL-18BPa inhibition of IFNγ induction, NK-92 cells [19]: 0.176 nM | IC50 (nM), IL-18BPa inhibition of IFNγ induction, NK-92 cells [20]: 0.885 nM | IC50 (nM), IL-18BPa inhibition of IFNγ induction, NK-92 cells [21]: 3.71 nM | IC50 (nM), IL-18BPa inhibition of IFNγ induction, NK-92 cells [22]: 10.2 nM | IC50 (nM), IL-18BPa inhibition of IFNγ induction, NK-92 cells [23]: 27.3 nM | IC50 (nM), IL-18BPa inhibition of IFNγ induction, NK-92 cells [24]: 733 nM | IC50 (nM), IL-18BPa inhibition of IFNγ induction, NK-92 cells [25]: 62.4 nM | IC50 (nM), IL-18BPa inhibition of IFNγ induction, NK-92 cells [26]: > 1000 nM | IC50 (nM), IL-18BPa inhibition of IFNγ induction, NK-92 cells [27]: 5.85 nM | IC50 (nM), IL-18BPa inhibition of IFNγ induction, NK-92 cells [28]: 961 nM | IC50 (nM), IL-18BPa inhibition of IFNγ induction, NK-92 cells [29]: 1.07 nM | IC50 (nM), IL-18BPa inhibition of IFNγ induction, NK-92 cells [30]: 0.444 nM | IC50 (nM), IL-18BPa inhibition of IFNγ induction, NK-92 cells [31]: 3.18 nM | IC50 (nM), IL-18BPa inhibition of IFNγ induction, NK-92 cells [32]: 1.62 nM | IC50 (nM), IL-18BPa inhibition of IFNγ induction, NK-92 cells [33]: 1.17 nM | IC50 (nM), IL-18BPa inhibition of IFNγ induction, NK-92 cells [34]: 0.44 nM | IC50 (read off the curve), inhibition of IFNg production by NK-92 cells [35]: 1 to 2 nM
